These results are taken from paper PMC6128766 (Nature structural & molecular biology, 2018).

This series concerns the molecule itself. Briefly: cryo-EM structure.

B1: TRPV3(Y564A) (natural protein, mouse, UniProt Q8K424 1-791, looked up)
chain: MNAHSKEMAPLMGKRTTAPGGNPVVLTEKRPADLTPTKKSAHFFLEIEGFEPNPTVTKTSPPIFSKPMDSNIRQCLSGNCDDMDSPQSPQDDVTETPSNPNSPSANLAKEEQRQKKKRLKKRIFAAVSEGCVEELRELLQDLQDLCRRRRGLDVPDFLMHKLTASDTGKTCLMKALLNINPNTKEIVRILLAFAEENDILDRFINAEYTEEAYEGQTALNIAIERRQGDITAVLIAAGADVNAHAKGVFFNPKYQHEGFYFGETPLALAACTNQPEIVQLLMENEQTDITSQDSRGNNILHALVTVAEDFKTQNDFVKRMYDMILLRSGNWELETMRNNDGLTPLQLAAKMGKAEILKYILSREIKEKPLRSLSRKFTDWAYGPVSSSLYDLTNVDTTTDNSVLEIIVYNTNIDNRHEMLTLEPLHTLLHTKWKKFAKYMFFLSFCFYFFYNITLTLVSYYRPREDEDLPHPLALTHKMSWLQLLGRMFVLIWATCISVKEGIAIFLLRPSDLQSILSDAWFHFVFFVQAVLVILSVFLYLFAYKEYLACLVLAMALGWANMLAYTRGFQSMGMYSVMIQKVILHDVLKFLFVYILFLLGFGVALASLIEKCSKDKKDCSSYGSFSDAVLELFKLTIGLGDLNIQQNSTYPILFLFLLITYVILTFVLLLNMLIALMGETVENVSKESERIWRLQRARTILEFEKMLPEWLRSRFRMGELCKVADEDFRLCLRINEVKWTEWKTHVSFLNEDPGPIRRTADLNKIQDSSRSNSKTTLYAFDELDEFPETSV
On to B1, for which the binding result is “binds”.
